B1: Anti-ZIKV #2 (IgG, Clone 306-2) (antibody, V domains shown)
VH: QSLEESGGDLVKPGASLTLTCTASGFDFSDRYYMCWVRQAPGKGLEWIGCIYVGSGDTYYASWAKGRFTISRTSSTTVTLQMTRLTAADTATYFCARHPGTYFTLWGPGTLVTVSS
VL: DVVMTQTPSSVSAAVGGTVTINCQASQNIVNNLAWYQQRPGQPPKLLIYDTSTLASGVPSRFKGSGSGTEFTLTISDLECADAATYYCQTYYYYNKIINGFGGGTEVVVKG
notes: also called antibody 2; acceptor Ab of mAb pairs #1 to 3
B2: Anti-ZIKV #1 (IgG, Clone 242-3) (antibody, V domains shown)
VH: QAQLEESGGDLVKPEGSLTLTCTASGFSFTDRHYMCWIRQAPGKGLEWIACVYPGSSGSTYYASWARGRFTISKTSSTTVTLRMTSLTAADTATYFCARSSYPDSSGYSYGMDLWGPGTLVTVSS
VL: DIVMTQTPASVEAAVGGTVTIKCQASQNINSNLAWYQQKPGQRPKFLMYLTSKLASGVPSRFRGSGSGTQFTLTISDLECADAATYYCQTYYDISNYGYAFGGGTEVVVKG
notes: also called antibody 1; donor Ab of mAb pair #1

Experiments:
[1] = target: T1, inactivated DENV2 (16681; Microbix) (Dengue virus serotype 2, UniProt P29990 281-775); assay: ELISA, antigen coated at 1 µg/mL, hybridoma supernatant
T1 construct: also called dengue virus serotype 2

[2] = target: T2, inactivated DENV1 (West Pacific 74, Microbix) (Dengue virus serotype 1, UniProt P17763 281-775); assay: as above
T2 construct: also called dengue virus serotype 1

[3] = target: T1, inactivated DENV2 (16681; Microbix); assay: ELISA, antigen coated at 1 µg/mL, hybridoma supernatant, anti-rabbit IgG-HRP
[4] = target: T3, ZIKV E protein (Native Antigen) (Zika virus); assay: as above
T3 chain: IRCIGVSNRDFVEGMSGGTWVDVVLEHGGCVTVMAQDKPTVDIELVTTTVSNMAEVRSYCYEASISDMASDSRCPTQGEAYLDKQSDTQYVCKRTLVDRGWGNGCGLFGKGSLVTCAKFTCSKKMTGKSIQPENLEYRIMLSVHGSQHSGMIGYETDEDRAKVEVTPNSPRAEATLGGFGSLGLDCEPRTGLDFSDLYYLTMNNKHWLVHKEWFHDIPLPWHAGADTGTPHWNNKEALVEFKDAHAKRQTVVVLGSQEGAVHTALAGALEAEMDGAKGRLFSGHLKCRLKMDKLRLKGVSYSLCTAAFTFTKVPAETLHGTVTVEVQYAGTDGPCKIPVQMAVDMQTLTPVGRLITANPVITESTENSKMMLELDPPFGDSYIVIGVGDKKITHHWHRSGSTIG

[5] = target: T2, inactivated DENV1 (West Pacific 74, …); assay: as above
[6] = target: T4, inactivated DENV3 (CH53489, Microbix) (Dengue virus serotype 3); assay: as above
T4 construct: also called dengue virus serotype 3

[7] = target: T5, inactivated DENV4 (TVP-360, Microbix) (Dengue virus serotype 4); assay: as above
T5 construct: also called dengue virus serotype 4

T2 sequence (P17763 281-775 limits assumed): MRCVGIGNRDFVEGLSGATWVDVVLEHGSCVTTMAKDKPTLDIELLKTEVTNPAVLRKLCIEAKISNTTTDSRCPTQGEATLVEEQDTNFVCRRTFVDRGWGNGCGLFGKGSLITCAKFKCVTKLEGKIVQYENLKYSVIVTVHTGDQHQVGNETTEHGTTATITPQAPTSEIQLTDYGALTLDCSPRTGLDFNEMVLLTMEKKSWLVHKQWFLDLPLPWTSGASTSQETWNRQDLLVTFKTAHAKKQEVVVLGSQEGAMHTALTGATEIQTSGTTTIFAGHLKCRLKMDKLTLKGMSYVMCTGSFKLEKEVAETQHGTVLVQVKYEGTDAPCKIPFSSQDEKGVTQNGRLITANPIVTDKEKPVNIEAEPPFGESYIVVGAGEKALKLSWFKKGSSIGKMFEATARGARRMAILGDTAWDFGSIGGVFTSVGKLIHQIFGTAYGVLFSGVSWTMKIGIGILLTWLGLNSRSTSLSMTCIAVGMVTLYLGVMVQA

Binder | binding result [1] | binding result [2] | optical density (OD) [3] | optical density (OD) [4] | optical density (OD) [5] | optical density (OD) [6] | optical density (OD) [7]
B1 | no binding | no binding | 0.034 OD | 0.61 OD | 0.037 OD | 0.034 OD | 0.048 OD
B2 | no binding | no binding | 0.034 OD | 0.33 OD | 0.04 OD | 0.04 OD | 0.038 OD

Reference: US20230204567A1 (Takeda / Millennium, published 2023)
